Measurements published in US11229679B2, “Compositions for treating heart disease by inhibiting the action of mAKAPβ” (Anchored RSK3 Inhibitors, LLC, priority 2013, dated 2022).

How the values were obtained:
[1] = tested on: neonatal rat ventricular myocytes; experiment: Neonatal rat ventricular myocyte hypertrophy (cross-section area, ANF expression); assay type: cell-based; details: for agonist-induced myocyte hypertrophy: BI-D1870 10 μmol/L, SL0101 50 μmol/L, PE, LIF or FBS, 2 days; for PE-induced hypertrophy: expressed in neonatal myocytes
Experimental: Neonatal rat myocytes isolation and culture: 1-3 day old Sprague-Dawley rats were decapitated and the excised hearts placed in 1×ADS Buffer (116 mmol/L NaCl, 20 mmol/L HEPES, 1 mmol/L NaH2PO4, 5.5 mmol/L glucose, 5.4 mmol/L KCl, 0.8 mmol/L MgSO4, pH 7.35). The atria were carefully removed and the blood washed away. The ventricles were minced and incubated with 15 mL 1×ADS Buffer containing 3.3 mg type II collagenase (Worthington, 230 U/mg) and 9 mg Pancreatin (Sigma) at 37° C. while shaking at 80 RPM. After 15 minutes, the dissociated cardiac myocytes were separated by centrifugation at 50×g for 1 minute, resuspended in 4 mL horse serum and incubated 37° C. with occasional agitation. The steps for enzymatic digestion and isolation of myocytes were repeated 10-12 times to maximize yield. The myocytes were pooled and spun down again at 50×g for 2 minutes and resuspended in Maintenance Medium (DMEM:M199, 4:1) supplemented with 10% horse serum and 5% fetal bovine serum. To remove any contaminating fibroblasts, the cells were pre-plated for 1 hour before plating on gelatin-coated tissue culture plasticware. This procedure yields >90% pure cardiac myocytes. After 1 day in culture, the media was changed to maintenance medium containing 0.1 mmol/L bromodeoxyuridine to suppress fibroblast growth. Experiments were initiated 1 day after myocyte isolation. Adenoviral infection was performed by addition of adenovirus (multiplicity of infection=5-50) to the media. Plasmids and siRNA oligonucleotides were transfected using Transfast (Promega) and Dharmafect (Thermofisher), respectively, as recommended by the manufacturers using cells cultured in maintenance medium supplemented with 4% horse serum. Starting the day after gene transduction, the cells were treated for as long as 2 days, as indicated for each experiment. Immunocytochemistry: Cultured neonatal cardiomyocytes on plastic coverslips were fixed in 3.7% formaldehyde in PBS, permeabilized with 0.3% Triton X-100 in PBS, and blocked with PBS containing 0.2% BSA and 1% horse serum for 1 hour. The slides were then sequentially incubated for 1 hour with primary and Alexa fluorescent dye-conjugated specific-secondary antibodies (Invitrogen, 1:1000) diluted in blocking buffer. The slips were washed three times with blocking buffer. 1 μg/mL Hoechst 33258 was included in the last wash stop to label nuclei. Slides were sealed in SlowFade Gold antifade buffer (Invitrogen) for fluorescent microscopy. Wide-field images were acquired using a Leica DMI 6000 Microscope. Morphometry: Morphometric data was acquired using IPLab Software. […] For adult mouse cardiac myocytes, the maximum lengths perpendicular (width) or parallel (length) to the myofibrils were measured for >100 freshly dissociated myocytes per heart.

[2] = tested on: Noonan syndrome mouse model (Raf1L613V knock-in); details: Wu 2011; cited from earlier work
[3] = tested on: NHE1; details: Cuello 2007; cited from earlier work
[4] = tested on: RSK; experiment: RSK activation in neonatal rat ventricular myocytes (pan-RSK phospho-S218 Western blot); assay type: cell-based; details: 10 μmol/L PE, 1 hour
Source text: RSK family members can be activated in most cell types by ERK, but not c-Jun N-terminal kinases or p38 (Anjum 2008). ERK phosphorylation is permissive for PDK1 phosphorylation of the RSK N-terminal kinase domain, such that PDK1 phosphorylation of RSK S^218 is indicative of full activation of the enzyme (FIG. 4A). […] The α-adrenergic stimulation with phenylephrine (PE) induced RSK phosphorylation 3-fold by both MEK1/2-dependent (that activates ERK1/2) and MEK5-dependent (that activates ERK5) mechanisms (FIG. 22).
Immunoprecipitations: HEK293 and COS-7 cells were transfected with Lipofectamine 2000 (Invitrogen) or Polyethylenimine “Max” (Polysciences). Cells (including myocytes) were lysed in buffer (20 mmol/L HEPES, pH 7.4, 150 mmol/L NaCl, 5 mmol/L EDTA, 0.5% Triton, 50 mmol/L NaF, 1 mmol/L sodium orthovanadate, 1 mmol/L DTT, and protease inhibitors). After centrifugation at 10,000×g for 10 minutes at 4° C., the clarified extracts were used for immunoprecipitation using appropriate antibodies (10 μg purified antibody or 1-5 μL whole serum) and 20 μL protein G sepharose (Millipore, Fastflow) for 3 hours to overnight at 4° C. The beads were washed 3-5 times with lysis buffer, and the immunoprecipitated proteins were eluted with 1× Laemmli buffer for western blotting. […]

[5] = tested on: HA-RSK3 fragments, HA-RSK2; experiment: Co-immunoprecipitation of tagged mAKAP and RSK proteins co-expressed in COS-7 cells; assay type: binding
Experimental: (§1) Immunoprecipitations: HEK293 and COS-7 cells were transfected with Lipofectamine 2000 (Invitrogen) or Polyethylenimine “Max” (Polysciences). Cells (including myocytes) were lysed in buffer (20 mmol/L HEPES, pH 7.4, 150 mmol/L NaCl, 5 mmol/L EDTA, 0.5% Triton, 50 mmol/L NaF, 1 mmol/L sodium orthovanadate, 1 mmol/L DTT, and protease inhibitors). After centrifugation at 10,000×g for 10 minutes at 4° C., the clarified extracts were used for immunoprecipitation using appropriate antibodies (10 μg purified antibody or 1-5 μL whole serum) and 20 μL protein G sepharose (Millipore, Fastflow) for 3 hours to overnight at 4° C. The beads were washed 3-5 times with lysis buffer, and the immunoprecipitated proteins were eluted with 1× Laemmli buffer for western blotting. Western blots were developed using horseradish peroxidase-conjugated donkey secondary antibodies, Supersignal West Chemiluminescent Substrates (Thermo Scientific) and X-ray film or a Fujifilm LAS-3000 imaging system.

[6] = target: T1, RSK3 (Homo sapiens, UniProt Q15349); experiment: Surface plasmon resonance of His-RSK3 binding to immobilized His-mAKAP 1286-1833
T1 construct: bacterially expressed His-tagged mAKAP 1286 to 1833 and full-length RSK3 was analyzed by surface plasmon resonance; His; made in house; host or cells: bacteria (pET30 / pGEX-4T vectors)
Experimental: Surface Plasmon Resonance: SPR analysis was performed using a BIAcore T100. 200 resonance units His-tagged mAKAP 1286-1833 were covalently immobilized using NHS (N-hydroxysuccinamide) and EDC [1-ethyl-3-(3-(dimethylamino)propyl)carbodiimide] (Biacore amine coupling kit) to the surface of a sensor chip (BIAcore type CM5). His-RSK3 analytes (6.25-200 nmol/L) in HBS buffer (10 mmol/L Hepes, pH 7.4, 150 mmol/L NaCl, and 0.005% Surfactant P20) were injected at a flow rate of 30 μL/min for 5 minutes, followed by buffer alone for another 5 minutes. Sensorgrams were processed by BIAcore T100 evaluation software.
For phosphorylated His-RSK3, 20 μg His-RSK3 was phosphorylated with 2 μg ERK2 (Millipore, 14-550) and/or PDK1 (Sigma, P7498) for 5 hours in kinase buffer (20 mmol/L MOPS, pH 7.2, 25 mmol/L β-glycerol phosphate, 5 mmol/L EGTA, 1 mmol/L sodium orthovanadate, 1 mmol/L DTT) with 0.5 mmol/L MgATP. Phospho-His-RSK3 was purified using His-binding beads and concentrated before use.

[7] = tested on: RSK3 and mAKAPβ; experiment: Co-immunoprecipitation of endogenous RSK3 with mAKAPβ complexes from PE-treated myocytes; assay type: cell-based, rat; details: expressed in neonatal myocytes
Experimental: as §1

T1 sequence (Q15349 whole entry): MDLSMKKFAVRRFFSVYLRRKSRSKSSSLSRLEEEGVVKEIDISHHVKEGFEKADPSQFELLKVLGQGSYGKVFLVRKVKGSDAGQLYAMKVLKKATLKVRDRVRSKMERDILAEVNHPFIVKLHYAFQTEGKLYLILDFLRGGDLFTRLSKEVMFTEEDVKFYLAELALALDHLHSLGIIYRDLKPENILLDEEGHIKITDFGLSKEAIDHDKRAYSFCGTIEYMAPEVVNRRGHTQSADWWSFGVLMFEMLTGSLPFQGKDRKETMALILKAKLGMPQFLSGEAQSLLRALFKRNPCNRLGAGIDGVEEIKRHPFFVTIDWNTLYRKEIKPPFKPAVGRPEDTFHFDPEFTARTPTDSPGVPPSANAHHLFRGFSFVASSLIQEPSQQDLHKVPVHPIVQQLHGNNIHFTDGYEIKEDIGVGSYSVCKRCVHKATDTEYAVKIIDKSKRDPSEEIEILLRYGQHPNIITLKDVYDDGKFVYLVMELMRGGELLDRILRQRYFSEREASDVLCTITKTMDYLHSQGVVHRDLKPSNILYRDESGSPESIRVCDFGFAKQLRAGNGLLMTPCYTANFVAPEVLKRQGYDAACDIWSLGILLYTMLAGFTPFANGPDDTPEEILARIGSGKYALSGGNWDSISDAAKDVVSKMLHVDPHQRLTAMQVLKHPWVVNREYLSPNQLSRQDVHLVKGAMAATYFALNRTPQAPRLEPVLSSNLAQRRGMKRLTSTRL

In the case of `CC(C)CCN1c2nc(Nc3cc(F)c(O)c(F)c3)ncc2N(C)C(=O)C1C` (stereo not drawn) [BI-D1870, reference compound], the agonist-induced myocyte hypertrophy [1] is reported as “inhibited”.

For `O=C(NOC[C@H](O)CO)c1ccc(F)c(F)c1Nc1ccc(I)cc1F` [PD0325901], the “progression of cardiac hypertrophy cardiomyopathy and other Noonan characteristics” value [2] is given as “attenuated progression”.

In the case of `CC(=O)OC1C(C)OC(Oc2c(-c3ccc(O)cc3)oc3cc(O)cc(O)c3c2=O)C(O)C1OC(C)=O` (stereo not drawn) [SL0101, reference compound], the agonist-induced myocyte hypertrophy [1] is reported as “inhibited”.

For `Cc1ccc(-c2c(C(=O)CF)n(CCCO)c3ncnc(N)c23)cc1` [fmk], the “α-adrenergic-induced NHE1 phosphorylation” value [3] is given as “blocked”.

With `CNC[C@H](O)c1cccc(O)c1` [phenylephrine] the “induction of RSK phosphorylation” value [4] was 3 fold.

B1: mAKAP RBD: main RSK3 binding domain of mAKAP, fragment encompassing residues 1694 to 1833; competing binding peptide (protein)
chain: ELSLCSEDIVLHKNKIPESNASFRKRLNRSVADESDVNVSMIVNVSCTSACTDDEDDSDLLSSSTLTLTEEELCLKDEDDDSSIATDDEIYEESNLMSGLDYIKNELQTWIRPKLSLTREKKRSGVTDEIKVNKDGGGNE
modifications: left off: small tags and cut ends
With B1 the PE-induced hypertrophy [1] was “inhibited” and the “binding to N-terminally truncated RSK3 mutant (HA-RSK3 DN30) or HA-tagged full-length RSK2” value [5] was “not”.

B2: mAKAP 1286 to 1833: bacterially expressed His-tagged mAKAP fragment, residues 1286 to 1833 (protein)
chain: VYSLHNVELHEDSHTPFLKSSPKFTGTTQPTVLTKSLSKDSSFSSTKSLPDLLGGSGLVRPYSCHSGDLSQNSGSESGIVSEGDNEMPTNSDMSLFSMVDGSPSNPETEHPDPQMGDAANVLEQKFKDNGESIKLSSVSRASVSPVGCVNGKAGDLNSVTKHTADCLGEELQGKHDVFTFYDYSYLQGSKLKLPMIMKQPQSEKAHVEDPLLGGFYFDKKSCKAKHQASESQPDAPPHERILASAPHEMGRSAYKSSDIEKTFTGIQSARQLSLLSRSSSVESLSPGGDLFGLGIFKNGSDSLQRSTSLESWLTSYKSNEDLFSCHSSGDISVSSGSVGELSKRTLDLLNRLENIQSPSEQKIKRSVSDMTLQSSSQKMPFAGQMSLDVASSINEDSPASLTELSSSDELSLCSEDIVLHKNKIPESNASFRKRLNRSVADESDVNVSMIVNVSCTSACTDDEDDSDLLSSSTLTLTEEELCLKDEDDDSSIATDDEIYEESNLMSGLDYIKNELQTWIRPKLSLTREKKRSGVTDEIKVNKDGGGNE
modifications: left off: small tags and cut ends
For B2, the “decrease of RSK3 binding affinity for mAKAP” value ([6]; RSK3 previously phosphorylated by ERK) was 5 fold, the “decrease of RSK3 binding affinity for mAKAP” value ([6]; RSK3 previously phosphorylated by both ERK and PDK1) was 8 fold and the “KD of binding to full-length RSK3” value ([6]; unphosphorylated His-RSK3) was “nanomolar”.

B3: green fluorescent protein-mAKAP RBD fusion protein: myc-GFP-mAKAP RSK binding domain (RBD) fusion protein; mAKAP 1694-1833 (protein)
chain: B1 chain
modifications: left off: small tags and cut ends; large carriers
For B3, the PE-induced hypertrophy [1] was “markedly inhibited” and the “association of endogenous RSK3 and mAKAPβ” value [7] was “competed”.
